# Reference: the nanobody polyreactivity screen of Harvey et al. (2022)
# Assay: yeast display, Sf9 membrane polyspecificity reagent, FACS + sequencing; frameworks hold sequencing errors
# Method in brief: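 Sorting gates, low and high (top ~1%), were placed on anti-HA fluorescence to track expression and on streptavidin fluorescence to track reagent binding. A clone's polyreactivity label is taken from the gate it came out of. The reagent was 10% biotinylated, detergent-solubilized Sf9 membrane, applied for 1 hour at 4 °C to galactose-induced yeast display cells.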
row,Sequence,polyreactivity (PSR sort gate)
1,QVQLVESGGGLVQAGGSLRLSCAASGYTIYIYAMGWYRQAPGKEREFVATISRSGGSTSYADSVKGRFTISRDNAKNTVYLQMNSLKPEDTSVYYCAAEWGYYAVGAQYYYWGQGTQVTVSS,high polyreactivity
2,QVQLVESGGGLVQAGGSLRLSCAASGYTLFRNAMGSYRQAPGKERELGAAISRSGARTYYADSVKGRFTISRDNAKNTVYLQMNSLKPEDTAVYYCAAVIKWTKDDYWGQGTQVTVSS,high polyreactivity
3,QVQLVESGGGLVQAGGSLRLSCAASGYTLGTYAMGWYRQAPGKERELVAAITWSGGRTNYADSVKGRFTISRDNAKNTVYLQMNSLKPEDTAVYYCAARYYFPFRRFRRMDYWGQGTQVTVSS,high polyreactivity
4,QVQLVESGGGLVQAGGSLRLSCAASGYTLKWYTMGWYRQAPGKERELVATIRRGGGTYYADSVKGRFTISRDNAKNTVYLQMNSLKPEDTAVYYCNARDRRRTNLLDYWGQGTQVTVSS,low polyreactivity
5,QVQLVESGGGLVQAGGSLRLSCAASGYTLSLNAMGWYRQAPGKEREFVARISGRGGSTYYADSVKGRFTISRDNAKNTVYLQMNSLKPEDTAVYYCAATWWPWGTDNRGMYYWGQGTQVTVSS,high polyreactivity
6,QVQLVESGGGLVQAGGSLRLSCAASGYTRFYAMGWYRQAPGTERELVAAISSSGGTTYYADSVKGRFTISRDNAKNTVYLQMNSLKPEDTAVYYCAKYVSYSRTLYDYWGQGTQVTVSS,low polyreactivity
7,QVQLVESGGGLVQAGGSLRLSCAASGYTSAKNGMGWYRQAPGKEREFVAGISRSGSSTYYADSVKGRFTISRDNAKNTVYLQMNSLKPEDTAVYFCAADWSVFTYFYGYDYWGQGTQVTVSS,low polyreactivity
8,QVQLVESGGGLVQAGGSLRLSCAASGYTSYTYTMGWYRQAPGKERELVAAISRRSDTTYADSVKGRFTISRDNAKNTVYLQMNSLKPEDTAVYYCAAVRVSYRSLSKSYYWGQGTQVTVSS,high polyreactivity
9,QVQLVESGGGLVQAGGSLRLSCAASGYTVGNNAMGWYRQAPGKERELVARIRTNGGTTYYADSVKGRFTISRDNAKNTVYLQMNSLKPEDTAVYYCNAYRGYEYDYWGQGTQVTVSS,low polyreactivity
10,QVQLVESGGGLVQAGGSLRLSCAASGYTVTSNAMGWYRQAPGKERELVAAITNVGSTNYADSVKGRFTISRDNAKNTVYLQMNSLKPEDTAVYYCAADWDAVYLQTADYDYWGQGSQVTVSS,low polyreactivity
11,QVQLVESGGGLVQAGGSLRLSCAASGYTYWQYAMGWYRQAPGKERELVATITSRGGSTYYADSVKGRFTISRDNAKNTVYLQMNSLIPEDTAVYYCNARRRYSTRRSDYWGQGTQVTVSS,high polyreactivity
12,QVQLVESGGGLVQAGGSLRLSCAASGYTYYRYAMGWYRQAPGKERELVAAISSSGGTYYADSVKGRFTISRDNAKNTVYLQMNSLKPEDTAVYYSAAEGYYLYNAGLWGYDYWGQGTQVTVSS,low polyreactivity
13,QVQLVESGGGLVQAGGSLRLSCAASGYVMGWYRQAPGKERELVAAITRGTSTYYADSVKGRFTISRDNAKNTVYLQMNSLKPEDTAVYYCAARTPGVSVYKDGYWGQGTQVTVSS,low polyreactivity
14,QVQLVESGGGLVQAGGSLRLSCAASRFIFYSNAMGWYRTAPGKERELVASITGDGGTTYYADSVKGRFTISRDNAKNNVYLQMNSLKPEDTAVYYCAKDYIYRGYYTDFRYEDYDYWGQGTQVTVSS,low polyreactivity
15,QVQLVESGGGLVQAGGSLRLSCAASRFTFRRNAMGWYRQAPGKERELVAAITYNGGTTYYADSVKGRFTISRDNAKNTVYLQMNSLKPEDTAVYYCNAPYGRQGYDYWGQGTQVTVSS,low polyreactivity
16,QVQLVESGGGLVQAGGSLRLSCAASRFTFTAYAMGWYRQAPGKERELVAAITGTGGSTKYADSVKGRFTISRDNAKNSVDLQMYSLKPEDTAVYYCAAIRFTLRRMDYWGHGTQVTVSS,high polyreactivity

row,Sequence,polyreactivity (PSR sort gate)
1,QVQLVESGGGLVQAGGSLRLSCAASRFYTMGWYRQAPGKERELVAAISWSGGDTYYADSVKGRFTISRDNAKNTVYLQMNSLKPEDTAVYYCAKKTIGSYVHEPYYYWGQGTQVTVSS,low polyreactivity
2,QVQLVESGGGLVQAGGSLRLSCAASRFYTMGWYRQAPGKERELVAAISWSGGDTYYADSVKGRFTISRDNAKNTVYLQMNSLKPVDTAVYYRAKKTIGSYVHEPYYYWGQGTQVTVSS,low polyreactivity
3,QVQLVESGGGLVQAGGSLRLSCAASRLIFYTYAMGWYRQAPGKETELVAAISFSGGSTYYADSVTGRFTISRDNAKNTVYLLMTSLKPEDTAVYYCAARGYYGYYYWGQGTQVTVSS,high polyreactivity
4,QVQLVESGGGLVQAGGSLRLSCAASRLTFQQYAMGWYRQAPGKERELVAAITSDGASTNYADSVKGRFTISRDNAKNTVYLQMNSLKPEDTAVYYCAARRRSRQYRYDYWGQGTQVTVSS,high polyreactivity
5,QVQLVESGGGLVQAGGSLRLSCAASRLTFRYYAMGWYRQAPGKERELVASISSSSGSTYYADSVKGRFTISRDNAKNTVYFQMNSLKPEDTAVYYCNARGWTLGADFGYWGQGTQVTVSS,low polyreactivity
6,QVQLVESGGGLVQAGGSLRLSCAASRRIFDHNAMGWYRQAPGKERELVAAISSSGGRTYYADSVKGRFTISRDNAKNTVYLQMNSLKPEDTAVYYCNKVRTVTTYEYWGQGTQVTVSS,high polyreactivity
7,QVQLVESGGGLVQAGGSLRLSCAASRRIFLWYAMGWYRQAPGKERELVASITRSGVTTYYADSVKGRFTISRDKAKNTVYLQMNSLKPEDTAVYYCNKDFRGDAIKLDVNYWGQGTQVTVSS,low polyreactivity
8,QVQLVESGGGLVQAGGSLRLSCAASRRTFGYYAMGWYRKAPGKEREMVAAIRSTGSTNYADSVKGRFTISRDNAKNSVYLQMNCLKPEDTAVYYCNAKRRFRYDYWGLGTQVTVSS,low polyreactivity
9,QVQLVESGGGLVQAGGSLRLSCAASRRTFKSSAMGWYRPEPGKERELVAAISRSGGITYYADSVKGRFTISRDNAKNTVYLQMNSLKPEDTAVYYCAAVGYQYRHRRFYYWGQGTQVTVSS,high polyreactivity
10,QVQLVESGGGLVQAGGSLRLSCAASRSIFRYYTMGWYRQAPGKETELVASISRGGSTNYADSVKGRFTISRDNAKNTVYLQMNSLKPEDTAVYDCAAGWTTRYFGGVDYWGQGTQVTVSS,high polyreactivity
11,QVQLVESGGGLVQAGGSLRLSCAASRSIFTWYAMGWYIQEPGKERELVAAITRGGSTYADSVKWRFTISRDNAKYTVYLLMNSLKPEDTAVYDCNAFYGVYDFNYWGQGTHVTVSS,low polyreactivity
12,QVQLVESGGGLVQAGGSLRLSCAASRSIFVPYAMGWYRQAPGKERELVAVITSGGSTYYADSVKGRFTISRDNAKNTVYLQMNSLKPEDTAVYYCNADLYYVWSTLSQFDYWGQGTQVTVSS,low polyreactivity
13,QVQLVESGGGLVQAGGSLRLSCAASRSIFYDYVMGWYRQAPGKEREFVAAISWGGDSTYYADSVKGRFTISRDNAKNTVYLQMISLKPEDTAVYYCNADYPWSVVGYDYWGQGTQVTVSS,low polyreactivity
14,QVQLVESGGGLVQAGGSLRLSCAASRSIFYFYAMGWYRHAPWKERELVAAINSGGTTNYADSVKGRFTISRDNAKNTVYSQMNSLKPEDTAVYYCAARLLIRYYYWGQGTLVTVSS,high polyreactivity
15,QVQLVESGGGLVQAGGSLRLSCAASRSIFYSYALGWSRQAPGKEREWVADITITGSTYYADSVKGRFTISRDNAKNTVYLQMKSLKSEDTAVYFCNAVLAPGGYAYWGQGTQVTVSS,low polyreactivity
16,QVQLVESGGGLVQAGGSLRLSCAASRSTFYIYVMGWYRQAPGKERELVAAISWSGGSTYYTDSVKGRFTISRDNAKNTVYLQMNSLNPEDTAVYYCNADAHWSVWSYIIDYDYWGEGTQVTVSS,low polyreactivity
